# Test results: patent US20210261648A1 (published 2021)
# Where a chain is given by its changes, count along the chain named.
# T1: FcγRIIb extracellular domain with C-terminal His tag (human, UniProt P31994 43-217)
# T1 construct: extracellular domain; For crystallography it was expressed with kifunensine and trimmed with Endo F1; also called FcgRIIb; FcγRIIb extracellular region; not shown: His tag attached to the C terminus
# T1 sequence (looked up): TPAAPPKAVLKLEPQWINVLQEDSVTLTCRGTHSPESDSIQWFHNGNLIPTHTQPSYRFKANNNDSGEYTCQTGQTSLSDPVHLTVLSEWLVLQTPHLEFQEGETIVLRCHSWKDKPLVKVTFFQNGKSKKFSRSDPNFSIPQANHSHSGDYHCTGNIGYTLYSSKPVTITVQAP
# T2: FcγRIIa type H extracellular domain with C-terminal His tag (human, UniProt P12318 34-217)
# T2 construct: extracellular domain; also called FcγRIIaH; FcgRIIaH; not shown: His tag attached to the C terminus
# T2 sequence (looked up): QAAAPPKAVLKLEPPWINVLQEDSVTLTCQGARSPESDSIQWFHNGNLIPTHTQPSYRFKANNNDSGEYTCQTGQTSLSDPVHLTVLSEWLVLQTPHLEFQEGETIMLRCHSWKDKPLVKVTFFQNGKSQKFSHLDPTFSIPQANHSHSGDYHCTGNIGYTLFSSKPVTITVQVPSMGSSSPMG
# T3: FcγRIIa type R extracellular domain with C-terminal His tag (human, UniProt P12318 34-217)
# T3 chain: T2 sequence (looked up) with H134R
# B1: IL6R-BP112/IL6R-L (antibody, human IgG1, kappa)
# heavy: QVQLQESGPGLVKPSETLSLTCAVSGHSISHDHAWSWVRQPPGEGLEWIGFISYSGITNYNPSLQGRVTISRDNSKNTLYLQMNSLRAEDTAVYYCARSLARTTAMDYWGEGTLVTVSSASTKGPSVFPLAPSSKSTSGGTAALGCLVKDYFPEPVTVSWNSGALTSGVHTFPAVLQSSGLYSLSSVVTVPSSSLGTQTYICNVNHKPSNTKVDKKVEPKSCDKTHTCPPCPAPELLGGDSVFLFPPKPKDTLMISRTPEVTCVVVDVSHEDGEVKFNWYVDGVEVHNAKTKPREEQYNSTYRVVSVLTVLHQDWLNGKEYKCKVSNKALPAPIEKTISKAKGQPREPQVYTLPPSRDELTKNQVSLTCLVKGFYPSDIAVEWESNGQPENNYKTTPPVLDSDGSFFLYSKLTVDKSRWQQGNVFSCSVMHEALHNHYTQESLSLSP
# light: not shown
# notes: Alterations introduced into IL6R-B3
# B2: IL6R-BP107/IL6R-L (antibody, human IgG1, kappa)
# heavy: B1 heavy with H270E, G273P
# light: not shown
# notes: as for B1
# B3: IL6R-BP102/IL6R-L (antibody, human IgG1, kappa)
# heavy: B1 heavy with S269Q, G273P
# light: not shown
# notes: as for B1
# B4: IL6R-BP119/IL6R-L (antibody, human IgG1, kappa)
# heavy: B1 heavy with G273P, K328M
# light: not shown
# notes: as for B1
# B5: IL6R-PD079/IL6R-L (antibody, human IgG1, kappa)
# heavy: B1 heavy with G239A, M254Y, G273P, N436Y, E441K
# light: not shown
# notes: PD variant; alterations introduced into IL6R-F11
# B6: IL6R-BP136/IL6R-L (antibody, human IgG1, kappa)
# heavy: B1 heavy with G273P, K328A
# light: not shown
# notes: as for B1
# B7: IL6R-BP117/IL6R-L (antibody, human IgG1, kappa)
# heavy: B1 heavy with G273P, K328D
# light: not shown
# notes: as for B1
# B8: IL6R-BP912/IL6R-L (antibody, human IgG1, kappa)
# heavy: B1 heavy with G273P, A332R
# light: not shown
# notes: as for B1
# B9: IL6R-BP126/IL6R-L (antibody, human IgG1, kappa)
# heavy: B1 heavy with G273P, K328L
# light: not shown
# notes: as for B1
# B10: IL6R-PD095/IL6R-L (antibody, human IgG1, kappa)
# heavy: B1 heavy with G239Y, M254Y, G273P, N436Y, E441K
# light: not shown
# notes: as for B5
# B11: IL6R-PD094/IL6R-L (antibody, human IgG1, kappa)
# heavy: B1 heavy with G239W, M254Y, G273P, N436Y, E441K
# light: not shown
# notes: as for B5
# B12: IL6R-PD097/IL6R-L (antibody, human IgG1, kappa)
# heavy: B1 heavy with S241D, M254Y, G273P, N436Y, E441K
# light: not shown
# notes: as for B5
# B13: IL6R-PD082/IL6R-L (antibody, human IgG1, kappa)
# heavy: B1 heavy with G239F, M254Y, G273P, N436Y, E441K
# light: not shown
# notes: as for B5
# B14: IL6R-BP116/IL6R-L (antibody, human IgG1, kappa)
# heavy: B1 heavy with G273P, K328T
# light: not shown
# notes: as for B1
# Assays:
# [1] = molecular target: T4, FcγRIa extracellular domain with C-terminal His tag (human, UniProt P12314 16-292); test: SPR binding amount, relative to IL6R-BF648/IL6R-L
# T4 construct: also called FcgRIa; not shown: His tag attached to the C terminus
# [2] = molecular target: T1, FcγRIIb extracellular domain with …; test: SPR binding amount, relative to IL6R-BF648/IL6R-L
# [3] = molecular target: T2, FcγRIIa type H extracellular domain …; test: SPR binding amount, relative to IL6R-BF648/IL6R-L
# [4] = molecular target: T3, FcγRIIa type R extracellular domain …; test: SPR binding amount, relative to IL6R-F652/IL6R-L
# [5] = molecular target: T1, FcγRIIb extracellular domain with …; test: SPR binding amount, relative to IL6R-F652/IL6R-L
# T4 sequence (P12314 16-292): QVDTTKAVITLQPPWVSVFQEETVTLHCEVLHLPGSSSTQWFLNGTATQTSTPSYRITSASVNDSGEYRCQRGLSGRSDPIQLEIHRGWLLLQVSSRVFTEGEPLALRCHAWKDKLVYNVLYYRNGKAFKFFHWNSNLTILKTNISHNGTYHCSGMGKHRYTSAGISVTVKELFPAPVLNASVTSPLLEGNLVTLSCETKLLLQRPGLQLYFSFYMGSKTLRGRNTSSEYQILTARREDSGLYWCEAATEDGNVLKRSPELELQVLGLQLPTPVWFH
binder,measurement,setting,value
B1,relative binding activity (IL6R-BF648/IL6R-L = 100),[1],119
same,relative binding activity (IL6R-BF648/IL6R-L = 100),[2],157
same,relative binding activity (IL6R-BF648/IL6R-L = 100),[3],113
B2,relative binding activity (IL6R-BF648/IL6R-L = 100),[1],123
same,relative binding activity (IL6R-BF648/IL6R-L = 100),[2],118
same,relative binding activity (IL6R-BF648/IL6R-L = 100),[3],114
B3,relative binding activity (IL6R-BF648/IL6R-L = 100),[1],104
same,relative binding activity (IL6R-BF648/IL6R-L = 100),[2],106
same,relative binding activity (IL6R-BF648/IL6R-L = 100),[3],66
B4,relative binding activity (IL6R-BF648/IL6R-L = 100),[1],117
same,relative binding activity (IL6R-BF648/IL6R-L = 100),[2],110
same,relative binding activity (IL6R-BF648/IL6R-L = 100),[3],133
B5,relative binding activity to FcγRIIaR (IL6R-F652/IL6R-L = 100),[4],138
same,relative binding activity to FcγRIIb (IL6R-F652/IL6R-L = 100),[5],101
B6,relative binding activity (IL6R-BF648/IL6R-L = 100),[1],117
same,relative binding activity (IL6R-BF648/IL6R-L = 100),[2],119
same,relative binding activity (IL6R-BF648/IL6R-L = 100),[3],103
B7,relative binding activity (IL6R-BF648/IL6R-L = 100),[1],124
same,relative binding activity (IL6R-BF648/IL6R-L = 100),[2],118
same,relative binding activity (IL6R-BF648/IL6R-L = 100),[3],96
B8,relative binding activity (IL6R-BF648/IL6R-L = 100),[1],60
same,relative binding activity (IL6R-BF648/IL6R-L = 100),[2],103
same,relative binding activity (IL6R-BF648/IL6R-L = 100),[3],93
B9,relative binding activity (IL6R-BF648/IL6R-L = 100),[1],113
same,relative binding activity (IL6R-BF648/IL6R-L = 100),[2],103
same,relative binding activity (IL6R-BF648/IL6R-L = 100),[3],132
B10,relative binding activity to FcγRIIaR (IL6R-F652/IL6R-L = 100),[4],543
same,relative binding activity to FcγRIIb (IL6R-F652/IL6R-L = 100),[5],124
B11,relative binding activity to FcγRIIaR (IL6R-F652/IL6R-L = 100),[4],593
same,relative binding activity to FcγRIIb (IL6R-F652/IL6R-L = 100),[5],122
B12,relative binding activity to FcγRIIaR (IL6R-F652/IL6R-L = 100),[4],844
same,relative binding activity to FcγRIIb (IL6R-F652/IL6R-L = 100),[5],139
B13,relative binding activity to FcγRIIaR (IL6R-F652/IL6R-L = 100),[4],380
same,relative binding activity to FcγRIIb (IL6R-F652/IL6R-L = 100),[5],108
B14,relative binding activity (IL6R-BF648/IL6R-L = 100),[1],110
same,relative binding activity (IL6R-BF648/IL6R-L = 100),[2],108
same,relative binding activity (IL6R-BF648/IL6R-L = 100),[3],110
